The results in this text go back to PMC3670040, “Structure of Lipid Kinase p110β/p85β Elucidates an Unusual SH2-Domain-Mediated Inhibitory Mechanism” (Molecular Cell, 2011).

Read-outs that look alike come from different tables or passages of the source.

Test [1] deals with p110β. Briefly: Transcreener ADP formation (fluorescence polarization), diC8-PIP2/POPS liposomes, mouse p110β complexes. In kind it is biochemical. As to conditions: Figure 5B, C-terminal truncation vs wild-type, diC8-PIP2/POPS, 100 μM ATP, 1 h, room temperature. As to the method: (§1) Figure 1 Inhibition of p110β by p85-Type Regulatory Subunits and Activation of the Complexes by RTK Phosphopeptide (A) Domain organization of p110β and the regulatory subunits p85α, p85β, and p55γ. The color scheme for the domains is used for all figures, unless otherwise stated. […] The inhibition is released upon addition of the 10 μM PDGFR pY2. […] The y axis is expressed as a change in fluorescence polarization (ΔmP), which is obtained by subtracting the observed polarization for the construct at a given enzyme concentration from the maximum fluorescence polarization for that construct. The plateau in these assays arises due to the competitive nature of the ADP detection system, based on displacement of ADP-Alexa 633 tracer from the ADP^2-antibody by ADP generated during the PI3K assay (see Supplemental Experimental Procedures). All measurements were done in triplicates, and the error bars indicate the standard error of the mean (SEM). (C) Kinase activity of p110β/p85β complexes with monomeric substrate (75 μM diC8-PIP2) in the presence and absence of pY2; y axis as in (B). (D) Basal- and pY2-stimulated activities of 35 nM PI3K complexes in the absence of lipids (ATP hydrolysis). Activities are given as percent of ATP converted to ADP using the Transcreener assay. Bars indicate SEM. TEXT PRINTED IN THE PICTURE: (B) p110β/nic: EC50 (nM): 15 | (B) p110β/nic+pY2: EC50 (nM): 0.14 | (B) p110β/ic: EC50 (nM): 1 | (B) p110β/ic+pY2: EC50 (nM): 0.21 | (B) p110β/ni: EC50 (nM): 0.84 | (B) p110β/ni+pY2: EC50 (nM): 0.24 | (B) p110β/i: EC50 (nM): 0.12 | (B) p110β/i+pY2: EC50 (nM): 0.14 | (B) ΔABD-p110β: EC50 (nM): 0.06 | (B) ΔABD-p110β+pY2: EC50 (nM): 0.05 | (C) p110β/nic: EC50 (nM): 24 | (C) p110β/nic+pY2: EC50 (nM): 3 | (C) p110β/ic: EC50 (nM): 5 | (C) p110β/ic+pY2: EC50 (nM): 2 | (C) p110β/ni: EC50 (nM): 4 | (C) p110β/ni+pY2: EC50 (nM): 2 […]
(§2) Figure 3 Mutation Y677A in p85β-cSH2 Releases Inhibitory Effect on p110β (A) Kinase activity (ADP formation) of p110β in a complex with p85β-icSH2-Y677A (Y677A-ic) compared to the wild-type complex (ic) in the absence and presence of 10 μM PDGFR pY2 (ADP formation on the y axis expressed as in Figure 1B). (B) Comparison of p110β activities of 1 nM complexes with wild-type or Y677 mutant nicSH2 or icSH2 (activity shown as in Figure 1D). TEXT PRINTED IN THE PICTURE: (A) p110β/ic: EC50 (nM): 1 | (A) p110β/ic+pY2: EC50 (nM): 0.15 | (A) p110β/ic-Y677A: EC50 (nM): 0.11 | (A) p110β/ic-Y677A+pY2: EC50 (nM): 0.08 […]
(§3) The lipid kinase activity was determined using the Transcreener ADP2 FP Assay (BellBrook Labs, Madison, WI) according to manufacturer‟s specifications. This non-radioactive assay measures activity by quantitating the amount of ADP formed. The ADP formed by PI3K competes with fluorescent ADP tracer for binding to an anti-ADP antibody, thereby decreasing fluorescence polarization. Because of the competitive nature of this assay, the change in fluorescence polarization signal is not a linear function of enzyme activity, and a convenient measure of enzyme activity is the EC50, or the concentration of enzyme necessary to give half-maximal inhibition of labeled ADP binding to the antibody, for a given concentration of substrate and a fixed time of reaction at initial rate. While activity of two different enzyme constructs can be compared at a fixed concentration of protein and a fixed concentration of substrate, the assay is most reliable when about 2%-10% of the ATP is […]
(§4) Consequently, the EC50 provides a convenient way to compare the activities of various constructs. Briefly, reactions were performed in 10 μl volume in 384-well black plates (Corning 3676) and they contained final 100 μM ATP, 75 μM lipids and a series of protein concentration varying from 0.001 nM to 2.5 μM. Serial dilutions of protein heterodimers were prepared in buffer F (50 mM Hepes pH 7.5, 100 mM NaCl, 0.03% CHAPS, 4 mM DTT) in 5 μl […]
volume. […]
A general note: Polarisation of emitted light reports the rotation of a fluorescent probe.

Test [2] addresses T1, p110β (Mus musculus, UniProt Q8BTI9).
T1 construct: Mouse His6-p110β(1-1064)/p85β-icSH2(423-722) complex; made in house; host or cells: Sf9 insect cells (baculovirus co-infection)
Described as above. As to conditions: Figure 5B. In kind it is biochemical. On the procedure: as §1, §2, §3, §4
volume. […]

T1 sequence (Q8BTI9 1-1047): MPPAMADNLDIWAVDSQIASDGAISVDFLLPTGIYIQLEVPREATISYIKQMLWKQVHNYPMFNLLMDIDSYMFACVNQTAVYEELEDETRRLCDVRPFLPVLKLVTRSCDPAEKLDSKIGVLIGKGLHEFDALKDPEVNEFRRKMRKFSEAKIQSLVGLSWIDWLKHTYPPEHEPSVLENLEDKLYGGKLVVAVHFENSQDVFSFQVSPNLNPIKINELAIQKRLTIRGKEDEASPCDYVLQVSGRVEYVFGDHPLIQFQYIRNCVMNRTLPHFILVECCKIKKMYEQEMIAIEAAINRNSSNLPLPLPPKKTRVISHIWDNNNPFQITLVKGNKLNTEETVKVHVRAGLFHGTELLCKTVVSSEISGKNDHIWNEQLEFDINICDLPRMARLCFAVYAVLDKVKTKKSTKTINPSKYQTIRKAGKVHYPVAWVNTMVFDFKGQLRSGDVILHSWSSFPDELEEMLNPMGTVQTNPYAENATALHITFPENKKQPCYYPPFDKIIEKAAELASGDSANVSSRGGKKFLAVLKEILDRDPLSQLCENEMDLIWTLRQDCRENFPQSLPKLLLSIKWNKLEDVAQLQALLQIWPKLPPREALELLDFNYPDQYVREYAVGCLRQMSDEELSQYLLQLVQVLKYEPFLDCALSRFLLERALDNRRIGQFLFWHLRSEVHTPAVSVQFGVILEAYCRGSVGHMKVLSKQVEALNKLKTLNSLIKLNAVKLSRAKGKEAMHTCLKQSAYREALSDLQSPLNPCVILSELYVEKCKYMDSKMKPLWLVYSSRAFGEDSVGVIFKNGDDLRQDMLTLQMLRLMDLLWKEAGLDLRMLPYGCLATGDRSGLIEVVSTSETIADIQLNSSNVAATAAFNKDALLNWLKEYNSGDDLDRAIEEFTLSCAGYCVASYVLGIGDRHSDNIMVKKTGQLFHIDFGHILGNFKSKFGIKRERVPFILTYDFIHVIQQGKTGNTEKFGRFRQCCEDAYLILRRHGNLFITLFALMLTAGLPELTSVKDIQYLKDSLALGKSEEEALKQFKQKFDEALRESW
T1 sequence (O08908 318-722 partner): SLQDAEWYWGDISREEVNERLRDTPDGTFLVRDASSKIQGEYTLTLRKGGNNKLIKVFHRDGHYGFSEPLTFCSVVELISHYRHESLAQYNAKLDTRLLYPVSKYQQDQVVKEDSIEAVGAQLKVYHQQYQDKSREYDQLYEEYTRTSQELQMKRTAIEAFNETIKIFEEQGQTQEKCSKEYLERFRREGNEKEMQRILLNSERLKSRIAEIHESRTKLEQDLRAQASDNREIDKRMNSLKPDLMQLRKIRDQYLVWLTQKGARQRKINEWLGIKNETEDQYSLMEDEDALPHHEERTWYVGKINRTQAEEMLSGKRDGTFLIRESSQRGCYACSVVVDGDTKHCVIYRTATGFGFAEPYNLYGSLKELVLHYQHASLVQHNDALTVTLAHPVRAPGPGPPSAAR

B1: p110β-ΔCter/nic: truncation mutant lacking 17 residues from the p110β C terminus; human ΔCter (1-1053) used in cells (protein, UniProt P42338 1-1053, looked up, fragment)
chain: MCFSFIMPPAMADILDIWAVDSQIASDGSIPVDFLLPTGIYIQLEVPREATISYIKQMLWKQVHNYPMFNLLMDIDSYMFACVNQTAVYEELEDETRRLCDVRPFLPVLKLVTRSCDPGEKLDSKIGVLIGKGLHEFDSLKDPEVNEFRRKMRKFSEEKILSLVGLSWMDWLKQTYPPEHEPSIPENLEDKLYGGKLIVAVHFENCQDVFSFQVSPNMNPIKVNELAIQKRLTIHGKEDEVSPYDYVLQVSGRVEYVFGDHPLIQFQYIRNCVMNRALPHFILVECCKIKKMYEQEMIAIEAAINRNSSNLPLPLPPKKTRIISHVWENNNPFQIVLVKGNKLNTEETVKVHVRAGLFHGTELLCKTIVSSEVSGKNDHIWNEPLEFDINICDLPRMARLCFAVYAVLDKVKTKKSTKTINPSKYQTIRKAGKVHYPVAWVNTMVFDFKGQLRTGDIILHSWSSFPDELEEMLNPMGTVQTNPYTENATALHVKFPENKKQPYYYPPFDKIIEKAAEIASSDSANVSSRGGKKFLPVLKEILDRDPLSQLCENEMDLIWTLRQDCREIFPQSLPKLLLSIKWNKLEDVAQLQALLQIWPKLPPREALELLDFNYPDQYVREYAVGCLRQMSDEELSQYLLQLVQVLKYEPFLDCALSRFLLERALGNRRIGQFLFWHLRSEVHIPAVSVQFGVILEAYCRGSVGHMKVLSKQVEALNKLKTLNSLIKLNAVKLNRAKGKEAMHTCLKQSAYREALSDLQSPLNPCVILSELYVEKCKYMDSKMKPLWLVYNNKVFGEDSVGVIFKNGDDLRQDMLTLQMLRLMDLLWKEAGLDLRMLPYGCLATGDRSGLIEVVSTSETIADIQLNSSNVAAAAAFNKDALLNWLKEYNSGDDLDRAIEEFTLSCAGYCVASYVLGIGDRHSDNIMVKKTGQLFHIDFGHILGNFKSKFGIKRERVPFILTYDFIHVIQQGKTGNTEKFGRFRQCCEDAYLILRRHGNLFITLFALMLTAGLPELTSVKDIQYLKDSLALGKSEEEALKQFKQKFDEALRESW
Consider B1, for which the EC50 in the test on p110β [1] (absence of pY2, read-out: EC50 (enzyme concentration), lipid kinase activity, basal) is 38 nM; in the test with p110β [1] (with 10 μM PDGFR pY2, read-out: EC50 (enzyme concentration), lipid kinase activity, + pY2), 57 nM. In addition, the “basal activity with diC8-PIP2/POPS” value with p110β [2] is reported as “very low basal activity”.
